Data: patent US20230295275A1 (FLAGSHIP PIONEERING INNOVATIONS VI, published 2023)
Positions count from the first letter of the chain named.

B1: AB-1 full-length IgG1 (antibody, V domains shown)
VH: QMQLVQSGTEVKKPGESLKISCKGSGYGFITVWIGWVRQMPGKGLEWMGIIYPGDSETRYSPSFQGQVTISADKSINTAYLQWSSLKASDTAIYYCAGGSGISTPMDVWGQGTTVTVSS
VL: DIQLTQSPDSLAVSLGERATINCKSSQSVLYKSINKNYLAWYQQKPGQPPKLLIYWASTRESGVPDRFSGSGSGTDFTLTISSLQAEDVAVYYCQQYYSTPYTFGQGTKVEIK
B2: AB-2 full-length IgG1 (antibody, V domains shown)
VH: B1 VH with Y27S, F29T
VL: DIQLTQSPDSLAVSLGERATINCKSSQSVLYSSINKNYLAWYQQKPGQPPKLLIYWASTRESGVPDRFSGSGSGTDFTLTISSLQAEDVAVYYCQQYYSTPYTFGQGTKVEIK
B3: AB-4 full-length IgG1 (antibody, V domains shown)
VH: B1 VH with Y27S, V32Y, S103H
VL: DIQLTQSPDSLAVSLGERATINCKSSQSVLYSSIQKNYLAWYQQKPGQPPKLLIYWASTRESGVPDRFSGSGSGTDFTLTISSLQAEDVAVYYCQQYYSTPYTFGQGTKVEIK
B4: AB-3 full-length IgG1 (antibody, V domains shown)
VH: B1 VH with Y27S
VL: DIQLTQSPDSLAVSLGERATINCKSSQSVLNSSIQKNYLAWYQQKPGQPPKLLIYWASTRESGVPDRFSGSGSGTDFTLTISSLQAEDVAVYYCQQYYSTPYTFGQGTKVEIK

These binders were tested against D614 SARS-CoV-2 spike (SARS-CoV-2, UniProt P0DTC2 14-1208).

Question: With B1 as the binder, how does the Kd read?
Answer: 1.66 nM

Question: For B2, which Kd is on record?
Answer: 1.48 nM

Question: With B3 as the binder, how does the Kd read?
Answer: 1.72 nM

Question: Which Kd does the source give for B4 here?
Answer: 0.907 nM

The binders below were run against soluble G614 HexaPro spike ectodomain (SARS-CoV-2, UniProt P0DTC2 14-1208).

Question: For B1, which Kd is on record?
Answer: 3.39 nM

Question: How did the Kd turn out when B2 was run?
Answer: 2.79 nM

Question: For B3, which Kd is on record?
Answer: 2.71 nM

Question: With B4 as the binder, how does the Kd read?
Answer: 1.74 nM
